“Also recorded” adds a separate entry of the source.

In series [1] the target is T1, tau-K18 acetyltransferase activity (auto-acetylation) (Homo sapiens, UniProt P10636).
T1 construct: made in house
Description: Tau auto-acetylation filter binding assay, kinetic analysis. Format: biochemical. The protocol:
(§1) Reactions were assembled in 50 μl of reaction buffer containing 50 mM Tris pH 8.0, 100 μM EDTA, and 10% glycerol. Unless specifically noted, reactions contained 25 μM of either WT tau-K18 or tau-K18-2CA mutant. The reactions were initiated by the addition of [^3H]-acetyl-CoA (2.35 Ci mmol^−1, Perkin Elmer) at concentrations ranging from 2.5 μM to 1 mM, incubated at 37° C., and allowed to proceed for 1 hr (unless otherwise noted). Reactions were stopped by the addition of 10 μl of 3 mM CoA, and 25 μl of the reaction was then spotted to a P81 filter paper (Whatman), washed in 10 mM HEPES pH 7.5 three times, and dried using acetone. Incorporated [^3H]-acetyl-CoA was then measured using the Perkin Elmer Tri-Carb 2800TR Liquid Scintillation Analyzer, and the molar amount of acetyl groups incorporated into tau were calculated from a standard curve of the radiolabeled acetyl-CoA.

For series [2], the system named is tau-K18 acetyltransferase activity (auto-acetylation). Described as above. Particulars: tau-K18 proteins containing sequential deletions. Format: biochemical. The protocol:
as §1

The test system of another series is tubulin. Description: MT assembly light-scattering assay. The class given is biochemical. Particulars: 30 μM tubulin, 40 μM tau proteins, 2 mM GTP. The protocol:
(§2) Recombinant full-length T40, 4R-tau MT-binding domain K18, or tau fibrils were acetylated by incubation with [^14C]-labeled acetyl-CoA in the presence or absence of CBP. FIG. 1A illustrates that the reaction products were analyzed by SDS-PAGE and Coomassie blue staining followed by overnight radiographic exposure using STORM phosphor-imager software. FIG. 1B depicts the results of an experiment where T40 or K18 proteins were incubated with acetyl-CoA and/or recombinant CBP and reaction products were subjected to immunoblot analysis using a polyclonal anti-tau-specific antibody for MT repeat domain (E10) and an anti-acetyl-lysine antibody. FIG. 1C is a graph depicting the MT assembly activities of K18 proteins as evaluated in light-scattering assays. Tubulin monomers (30 μM) were mixed with 40 μM tau proteins in MT assembly buffer supplemented with 2 mM guanosine triphosphate. MT assembly was determined by monitoring absorbance every minute at 350 nm using a SpectraMax plate reader. […] FIG. 1D is a graph illustrating the results of experiments where Tau proteins (10 μM) were evaluated in fibrillization reactions using 10 μM heparin to induce assembly. […] Samples were analysed by SDS-PAGE and Coomassie staining to monitor fibril formation. FIG. 1F illustrates the results of experiments where four-hour time points from fibrillization reactions were analysed by negative-staining EM. […]

Series [3] is described as follows: Heparin-induced tau fibrillization assay quantified by Thioflavin-T binding. Format: biochemical. Particulars: 10 μM tau proteins, 10 μM heparin, 4-h incubation. The protocol: as §2
Tau K18 protein was either mock acetylated or acetylated in vitro using acetyl-CoA substrate as indicated elsewhere herein. […] Protein concentrations were determined using the bicinchoninic acid protein assay (Pierce) with bovine serum albumin as the standard. Acetylated K18 and mock-treated K18 were assessed by a light-scattering assay as described elsewhere herein. […] The extent of fibrillization was assessed at different time points by ThT fluorescence assay, sedimentation analysis and negative staining EM as described elsewhere herein. For ThT fluorescence assay, ThT diluted in 100 mM glycine buffer (pH 8.5) was added and fluorometric readings were taken at 450 nm (excitation) and 510 nm (emission). […]

For series [4], the system named is K18-PL acetylation in QBI-293 cells. Description: Cell-based K18-PL acetylation assay in QBI-293 cells. To be noted: C646 to block CBP/p300, 3MA-induced acetylation, overnight.
Series [5] has as its system 2N4R-tau and tau-K18 auto-acetylation activity. Description: Tau acetyltransferase inhibition studies (pre-incubation with cysteine blocking agents, tubulin or microtubules). Format: biochemical. To be noted: pre-incubated with 0.5 mM NEM or 4 mM IA. The protocol: FIG. 14, comprising FIGS. 14a-14c, is a series of images depicting the results of experiments showing that cysteine blocking agents inhibit tau-mediated acetyltransferase activity. […] FIG. 14c is an image showing bovine brain derived microtubule associated protein (MAP-rich) fractions containing all CNS tau isoforms that were evaluated in acetyltransferase assays in the presence of increased tubulin concentrations followed by immunoblotting with Ac-K280 and total tau (T46) antibodies.
Acetyltransferase assays using purified tau proteins were performed as previously described and subjected to autoradiography or immunoblotting using the following anti-tau antibodies: anti-tau polyclonal (Dako, A0024, 1:10,000), anti-acetyl lysine (Cell Signaling, #9441, 1:1000), anti-tau monoclonal (T46, 1:1000), anti-mouse tau (T49, 1:1000), anti-acetylated tau (Ac-K280, 1:1000), anti-acetylated tau (Ac-K369, 1:1000). For tau acetyltransferase inhibition studies, tau proteins were pre-incubated with 0.5 mM N-ethyl-maleimide (NEM), 4 mM iodoacetamide (IA), or increasing concentrations of either tubulin (5-10 μM) or pre-formed microtubules (5 μM). […] Reaction products were readily distinguished between 2N4R-tau (Mr ˜65 kD) and tau-K18 (Mr ˜15 kD) by immunoblotting using acetylated tau (Ac-K280) and total tau (E10) antibodies. […]

A further series concerns HDAC6. Description: HDAC6 siRNA in HEK-T40 cells, immunoblotting. The class given is cell-based, human. The protocol: FIG. 7, comprising FIG. 7A through FIG. 7D, depicts the results of experiments which illustrate the characterization of the ac-K280 site-specific acetylated tau antibody. FIG. 7A illustrates the results of an experiment where recombinant WT-K18 or ΔK280-K18 proteins (1 μg) were incubated in the presence or absence of acetyl-CoA or CBP as indicated and K280 acetylation was determined by immunoblotting using anti-ac-K280 and a polyclonal antibody raised to exon 10 of tau protein (E10). FIG. 7B illustrates the results of an experiment where QBI-293 cells were co-transfected with WT-T40 tau or ΔK280-T40 mutant tau expression plasmids along with CBP to promote tau acetylation. 1, 2, and 5 μg total cell lysates were analyzed by western blotting using anti-ac-K280, total tau (T46), and GAPDH antibodies. […] Scale bar represents 50 μm. FIG. 7D illustrates the results of an experiment where control or HDAC6 siRNA expressing HEK-T40 cells were analyzed by immunoblotting using ac-K280, total tau, HDAC6, and GAPDH antibodies.
The longest human tau isoform (designated Tau-T40) was cloned into pCDNA5/TO vector (Invitrogen) and site-directed mutagenesis (Quikchange kit; Stratagene) was used to create K→Q or K→R mutations at residues K163, K280, K281, K369 as indicated. Indicated plasmids were transfected into either QBI-293 cells or stably expressing HEK-T40 cells using Fugene (Roche). […]
For orientation: In western blotting, separated proteins are transferred to a membrane and probed.

T1 sequence (P10636 561-689 limits assumed): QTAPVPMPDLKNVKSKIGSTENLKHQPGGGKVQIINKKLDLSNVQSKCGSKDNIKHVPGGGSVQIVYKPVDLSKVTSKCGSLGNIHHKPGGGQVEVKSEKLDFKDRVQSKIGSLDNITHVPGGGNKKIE

The term Km denotes the substrate concentration at which the rate is half of its maximum. For “tau-K18: recombinant tau fragment encompassing all four MT-binding repeats”, in series [1] (auto-acetylation, this study), the “Kcat [auto]” value amounted to 8.3e-05 s⁻¹. For the same molecule, the Km in series [1] (auto-acetylation, this study, read-out: Km AcCoA [auto]) was found to be 147 µM; in series [2], 147 µM. Moreover, the “turnover rate Kcat” value in series [1] (saturation plot against acetyl-CoA concentration) worked out at 8.3e-05 s⁻¹. The “MT assembly (absorbance at 350 nm)” value in the series on tubulin was “promoted tubulin assembly into MTs”. Moreover, the “fibrillization (ThT)” value in series [3] is recorded as “did not fibrillize during the 4-h incubation period”.

As to `CC1=NN(c2ccc(C(=O)O)cc2)C(=O)/C1=C\c1ccc(-c2cc(C)c(C)cc2[N+](=O)[O-])o1` [C646], the K18-PL acetylation levels result in series [4] is given as “no effect on K18-PL acetylation levels”.

In the case of `CCN1C(=O)C=CC1=O` [N-ethyl-maleimide], the “2N4R-tau or tau-K18 auto-acetylation activity after pretreatment” value in series [5] is “abrogation of 2N4R-tau or tau-K18 auto-acetylation activity; also recorded: minimal acetyltransferase activity”.

As for `NC(=O)CI` [iodoacetamide], the “2N4R-tau or tau-K18 auto-acetylation activity after pretreatment” value in series [5] is reported as “abrogation of 2N4R-tau or tau-K18 auto-acetylation activity; also recorded: minimal acetyltransferase activity”.

As for “HDAC6 small interfering RNA: HDAC6 siRNA (Invitrogen) 5′-AAAGUUGGAACUCUCACGGUGCAGC-3′ (SEQ ID NO: 1) (listed as RNA, chemistry not given here)”, the “levels of ac-K280” value in the series with HDAC6 is listed as “increased levels of ac-K280”.

The values above are taken from patent US20130251731A1, “Tau Acetylation in the Pathogenesis of Alzheimers Disease and Other Related Tauopathies” (THE TRUSTEES OF THE UNIVERSITY OF PENNSYLVANIA, priority 2012, published 2013).
